Measurements from the Human Domainome abundance scans (Beltran et al. 2025).
± gives the uncertainty stated by the source.

B1: Nanos homolog 2, residues 63 to 115; numbered along this chain, P60321 (parent)
chain: CNFCKHNGESRHVYSSHQLKTPDGVVVCPILRHYVCPVCGATGDQAHTLKYCP

Variants of: B1
Experiment: abundance fitness (aPCA) (normalised: wild type 0, dead -1); higher = more abundant; growth selection in yeast, the domain comes from the species named
Conditions: Homo sapiens

Variant	abundance fitness
P37A	-0.231 ± 0.12
P37M	-0.101 ± 0.12
P37E	0.149 ± 0.11
P37D	0.07 ± 0.15
P37S	0.156 ± 0.1
P37L	-0.214 ± 0.098
P37N	0.078 ± 0.087
P37G	-0.046 ± 0.059
P37K	0.139 ± 0.081
P37T	-0.09 ± 0.11
P37C	-0.34 ± 0.12
P37V	-0.072 ± 0.066
P37Q	0.324 ± 0.2
P37W	-0.642 ± 0.15
P37F	-0.306 ± 0.12
P37Y	-0.305 ± 0.41
P37I	-0.196 ± 0.13
P37R	0.088 ± 0.085
P37H	-0.034 ± 0.11
G43Y	-0.703 ± 0.11
G43L	-0.494 ± 0.08
G43R	-0.135 ± 0.09
G43N	-0.35 ± 0.23
G43H	-0.701 ± 0.3

Variant	abundance fitness
G43E	-0.187 ± 0.12
G43C	-0.421 ± 0.13
G43Q	-0.176 ± 0.081
G43M	-0.414 ± 0.07
G43P	-0.718 ± 0.079
G43V	-0.679 ± 0.092
G43I	-0.744 ± 0.17
G43A	-0.138 ± 0.075
G43D	-0.125 ± 0.1
G43T	-0.467 ± 0.079
V26N	-0.456 ± 0.17
V26M	-0.292 ± 0.2
V26E	-0.574 ± 0.13
V26A	-0.369 ± 0.11
V26G	-0.441 ± 0.057
V26F	-0.284 ± 0.14
V26P	-0.359 ± 0.17
V26R	-0.523 ± 0.087
V26T	-0.111 ± 0.077
V26D	-0.509 ± 0.16
V26I	0.033 ± 0.084
V26C	-0.032 ± 0.12
V26S	-0.322 ± 0.092
V26L	-0.036 ± 0.083

Variant	abundance fitness
V26W	-0.46 ± 0.071
V26Q	-0.305 ± 0.081
V26Y	-0.427 ± 0.22
V26K	-0.031 ± 0.15
I30L	-0.033 ± 0.084
I30G	-0.081 ± 0.065
I30W	-0.346 ± 0.11
I30Q	-0.05 ± 0.12
I30C	-0.304 ± 0.15
I30K	0.127 ± 0.089
I30T	0.111 ± 0.098
I30F	-0.524 ± 0.2
I30H	0.041 ± 0.2
I30N	0.039 ± 0.18
I30E	-0.108 ± 0.13
I30D	-0.345 ± 0.28
I30P	-0.249 ± 0.091
I30M	0.015 ± 0.11
I30A	0.084 ± 0.1
I30S	0.082 ± 0.06
V35P	-0.341 ± 0.094
V35A	-0.209 ± 0.085
V35C	-0.253 ± 0.089
V35H	0.293 ± 0.2

Variant	abundance fitness
V35G	-0.306 ± 0.071
V35E	-0.076 ± 0.078
V35M	-0.51 ± 0.2
V35K	-0.076 ± 0.1
V35N	-0.254 ± 0.16
V35R	-0.1 ± 0.081
V35F	-0.676 ± 0.2
V35L	-0.234 ± 0.097
V35D	-0.398 ± 0.1
V35W	-0.445 ± 0.12
V35Y	-0.086 ± 0.16
G40Y	-0.168 ± 0.15
G40M	-0.107 ± 0.098
G40S	-0.052 ± 0.093
G40C	-0.023 ± 0.073
G40I	-0.394 ± 0.12
G40K	0.183 ± 0.099
G40R	0.021 ± 0.066
G40H	0.051 ± 0.16
G40A	-0.08 ± 0.12
G40Q	-0.172 ± 0.23
G40N	-0.134 ± 0.21
G40P	-0.595 ± 0.079
G40D	0.343 ± 0.16

Variant	abundance fitness
G40T	-0.063 ± 0.12
G40F	-0.012 ± 0.23
G40E	0.13 ± 0.15
Q45D	-0.015 ± 0.12
Q45G	-0.003 ± 0.068
Q45E	-0.186 ± 0.09
Q45I	-0.214 ± 0.14
Q45A	-0.069 ± 0.077
Q45C	-0.186 ± 0.19
Q45K	0.024 ± 0.11
Q45F	-0.043 ± 0.26
H33M	-0.028 ± 0.09
H33E	-0.082 ± 0.12
H33F	-0.534 ± 0.16
H33V	0.033 ± 0.069
H33N	0.218 ± 0.093
H33I	-0.435 ± 0.19
H33C	-0.013 ± 0.11
H33W	-0.086 ± 0.09
H33A	0.046 ± 0.075
H33R	0.036 ± 0.05
H33Y	-0.335 ± 0.11
H33P	-0.319 ± 0.084
H33K	-0.013 ± 0.11

Variant	abundance fitness
H33T	0.068 ± 0.1
H33D	0.127 ± 0.1
V25K	0.085 ± 0.083
V25M	-0.051 ± 0.12
V25Y	-0.092 ± 0.096
V25I	0.03 ± 0.096
V25S	-0.046 ± 0.092
V25W	-0.459 ± 0.13
V25L	0.074 ± 0.095
V25Q	-0.05 ± 0.075
V25N	0.08 ± 0.097
V25T	0.004 ± 0.071
V25R	0.019 ± 0.086
C39H	-0.597 ± 0.22
C39D	-0.837 ± 0.32
C39M	-0.717 ± 0.2
C39R	-0.696 ± 0.11
C39V	-0.702 ± 0.21
C39F	-0.497 ± 0.36
C39A	-0.986 ± 0.46
C39E	-0.484 ± 0.12
C39K	-0.608 ± 0.11
C39Q	-0.428 ± 0.18
C39L	-0.607 ± 0.094

Variant	abundance fitness
C39G	-0.731 ± 0.13
C39P	-0.85 ± 0.24
C39I	-0.739 ± 0.39
C39T	-0.58 ± 0.08
C39W	-0.708 ± 0.11
C39Y	-0.781 ± 0.073
T42S	-0.116 ± 0.067
T42P	-0.895 ± 0.24
T42W	-0.37 ± 0.095
T42L	-0.294 ± 0.068
T42I	-0.342 ± 0.074
T42E	-0.128 ± 0.12
T42A	-0.162 ± 0.078
T42H	-0.481 ± 0.23
T42C	-0.223 ± 0.096
T42F	-0.395 ± 0.39
T42Q	-0.023 ± 0.11
T42M	-0.153 ± 0.13
T42N	-0.23 ± 0.14
T42R	-0.151 ± 0.07
T42D	-0.24 ± 0.12
C28A	-0.714 ± 0.12
C28M	-0.524 ± 0.11
C28R	-0.752 ± 0.09

Variant	abundance fitness
C28D	-0.643 ± 0.21
C28L	-0.962 ± 0.078
C28F	-0.91 ± 0.18
C28G	-0.535 ± 0.058
C28Y	-0.815 ± 0.28
C28Q	-0.428 ± 0.2
C28V	-0.852 ± 0.17
C28W	-1.03 ± 0.26
C28S	-0.501 ± 0.085
C28P	-0.664 ± 0.18
C28E	-0.733 ± 0.13
C28T	-0.586 ± 0.16
A41H	-0.068 ± 0.15
A41V	-0.102 ± 0.068
A41M	-0.05 ± 0.082
A41L	-0.032 ± 0.089
A41Q	0.023 ± 0.14
A41K	-0.173 ± 0.11
A41C	0.014 ± 0.1
A41R	-0.251 ± 0.091
A41D	-0.287 ± 0.15
A41W	-0.383 ± 0.14
A41S	-0.014 ± 0.069
A41G	-0.08 ± 0.074

Variant	abundance fitness
A41T	-0.089 ± 0.099
A41Y	-0.184 ± 0.089
A41I	-0.574 ± 0.25
A41F	-0.379 ± 0.081
A41E	-0.032 ± 0.062
A41P	-0.593 ± 0.11
C36R	-0.658 ± 0.083
C36A	-0.416 ± 0.1
C36G	-0.826 ± 0.086
C36L	-1 ± 0.11
C36D	-0.444 ± 0.11
C36E	-0.627 ± 0.1
C36H	-0.623 ± 0.31
C36P	-0.74 ± 0.24
C36M	-0.75 ± 0.094
C36Y	-0.726 ± 0.23
C36Q	-0.471 ± 0.22
C36F	-0.888 ± 0.13
C36W	-1.16 ± 0.43
C36S	-0.699 ± 0.094
C36I	-0.976 ± 0.36
C36V	-0.93 ± 0.098
C36T	-0.804 ± 0.29
C36N	-0.675 ± 0.11

Variant	abundance fitness
L31I	-0.16 ± 0.17
L31D	-0.622 ± 0.23
L31C	-0.416 ± 0.14
L31Y	-0.66 ± 0.24
L31T	-0.207 ± 0.13
L31S	-0.433 ± 0.09
L31R	-0.415 ± 0.074
L31W	-0.566 ± 0.15
L31A	-0.117 ± 0.069
L31E	-0.339 ± 0.078
L31N	-0.547 ± 0.18
L31H	-0.271 ± 0.15
L31P	-0.444 ± 0.15
L31V	-0.284 ± 0.066
L31G	-0.443 ± 0.081
L31Q	-0.349 ± 0.097
L31K	-0.271 ± 0.11
L31M	-0.153 ± 0.11
P29C	-1.07 ± 0.12
P29D	-0.543 ± 0.15
P29S	-0.65 ± 0.12
P29N	-0.779 ± 0.4
P29L	-0.978 ± 0.15
P29A	-0.786 ± 0.25

Variant	abundance fitness
P29Y	-0.721 ± 0.29
P29K	-0.364 ± 0.074
P29W	-1.07 ± 0.35
P29M	-1.05 ± 0.16
P29Q	-0.38 ± 0.17
P29G	-0.588 ± 0.089
P29R	-0.503 ± 0.06
P29E	-0.195 ± 0.14
V38N	-0.012 ± 0.13
V38A	0.001 ± 0.1
V38F	0.084 ± 0.083
V38M	-0.003 ± 0.061
V38D	-0.184 ± 0.17
V38K	0.314 ± 0.089
V38R	0.172 ± 0.06
V38G	0.082 ± 0.066
V38S	0.074 ± 0.084
V38W	-0.222 ± 0.11
V38C	-0.099 ± 0.18
V38T	0.016 ± 0.11
V38E	0.287 ± 0.1
V38I	-0.16 ± 0.13
V38Q	0.091 ± 0.1
V38H	-0.222 ± 0.16

Variant	abundance fitness
V27Y	-0.128 ± 0.13
V27P	-0.434 ± 0.09
V27M	-0.069 ± 0.17
V27A	-0.074 ± 0.087
V27L	-0.075 ± 0.11
V27Q	-0.349 ± 0.28
V27K	-0.132 ± 0.15
V27W	-0.144 ± 0.14
V27H	0.096 ± 0.14
V27I	0.053 ± 0.13
V27D	-0.09 ± 0.13
V27T	0.02 ± 0.072
V27C	-0.014 ± 0.091
V27G	-0.085 ± 0.082
V27R	0.037 ± 0.094
V27E	-0.148 ± 0.12
V27F	-0.049 ± 0.12
R32G	-0.352 ± 0.069
R32M	-0.18 ± 0.11
R32W	-0.419 ± 0.1
R32E	-0.49 ± 0.11
R32C	-0.662 ± 0.14
R32S	-0.225 ± 0.09
R32T	-0.204 ± 0.065

Variant	abundance fitness
R32F	-0.514 ± 0.17
R32A	-0.241 ± 0.083
R32H	-0.368 ± 0.16
R32Q	-0.446 ± 0.13
R32V	-0.473 ± 0.06
R32I	-0.434 ± 0.064
R32N	-0.522 ± 0.19
R32K	-0.204 ± 0.14
R32L	-0.427 ± 0.09
R32P	-0.715 ± 0.14
R32D	-0.376 ± 0.14
Y34F	-0.011 ± 0.091
Y34G	-0.229 ± 0.051
Y34W	-0.066 ± 0.12
Y34S	-0.097 ± 0.08
Y34V	-0.033 ± 0.073
Y34A	-0.071 ± 0.07
Y34H	0.073 ± 0.12
Y34P	-0.6 ± 0.14
Y34Q	0.013 ± 0.099
Y34T	0.036 ± 0.1
Y34L	0.042 ± 0.068
Y34N	-0.134 ± 0.091
Y34D	-0.32 ± 0.093

Variant	abundance fitness
Y34C	-0.066 ± 0.06
Y34M	-0.092 ± 0.11
Y34I	-0.107 ± 0.15
Y34R	0.046 ± 0.068
Y34K	-0.03 ± 0.14
D44W	-0.429 ± 0.11
D44V	-0.299 ± 0.08
D44E	-0.334 ± 0.14
D44R	-0.403 ± 0.084
D44Q	-0.25 ± 0.11
D44G	-0.048 ± 0.059
D44S	-0.294 ± 0.097
D44C	-0.391 ± 0.12
D44M	-0.271 ± 0.063
D44P	-0.274 ± 0.1
D44T	-0.14 ± 0.075
D44N	-0.047 ± 0.1
D44F	0.009 ± 0.15
D44Y	-0.55 ± 0.14
D44L	-0.453 ± 0.084
D44H	-0.514 ± 0.23
D44I	-0.457 ± 0.25
